Reference: patent US20200048328A1 (Bristol-Myers Squibb, published 2020)
Where two headings read alike, the source gives them in different places.

Tests used:
mouse serum albumin [1] = target: T1, mouse serum albumin (mouse, UniProt P07724 25-608); experiment: SPR, albumin immobilized
T1 construct: also called MSA; MuSA

rhesus serum albumin [2] = target: T2, rhesus serum albumin (rhesus, UniProt Q28522 17-600); experiment: SPR, albumin immobilized
T2 construct: also called RhSA; Rh-SA

rat serum albumin [3] = target: T3, rat serum albumin (rat, UniProt P02770 25-608); experiment: SPR, albumin immobilized
T3 construct: also called Rat SA; RSA

human serum albumin [4] = target: T4, human serum albumin (human, UniProt P02768 25-609); experiment: SPR, albumin immobilized
T4 construct: immobilized on chips or coated on plates elsewhere; also called HSA; HuSA

cynomolgus serum albumin [5] = target: T5, cynomolgus serum albumin (cynomolgus, UniProt A2V9Z4 25-608); experiment: SPR, albumin immobilized
T5 construct: also called cynoSA; CySA

human serum albumin [6] = target: T4, human serum albumin; experiment: direct binding ELISA on coated HSA, mono-Adnectin (column HSA EC50 (nM))
human serum albumin [7] = target: T4, human serum albumin; experiment: hFcRn:HSA competition AlphaScreen, pH 5.5
domain III of HSA = target: T6, domain III of HSA (human, UniProt P02768 405-609, limits assumed); experiment: SPR on HSA domains
T6 construct: domain: III; also called HuSA domainIII

domain I of HSA = target: T7, domain I of HSA (human, UniProt P02768 25-221, limits assumed); experiment: SPR on HSA domains
T7 construct: domain: I; also called HSA domain I

mouse serum albumin [8] = target: T1, mouse serum albumin; experiment: SPR, albumin immobilized, acetate pH 5.5
rhesus serum albumin [9] = target: T2, rhesus serum albumin; experiment: SPR, albumin immobilized, acetate pH 5.5
human serum albumin [10] = target: T4, human serum albumin; experiment: SPR, albumin immobilized, acetate pH 5.5
mouse serum albumin [11] = target: T1, mouse serum albumin; experiment: SPR, albumin immobilized, HBS-P pH 7.4
rhesus serum albumin [12] = target: T2, rhesus serum albumin; experiment: SPR, albumin immobilized, HBS-P pH 7.4
human serum albumin [13] = target: T4, human serum albumin; experiment: SPR, albumin immobilized, HBS-P pH 7.4
mouse serum albumin [14] = target: T1, mouse serum albumin; experiment: SPR, albumin immobilized; remark: listed apart in the source
mouse serum albumin [15] = target: T1, mouse serum albumin; experiment: SPR, albumin immobilized, HBSP pH 7.4
rhesus serum albumin [16] = target: T2, rhesus serum albumin; experiment: SPR, albumin immobilized, HBSP pH 7.4
human serum albumin [17] = target: T4, human serum albumin; experiment: SPR, albumin immobilized, HBSP pH 7.4
mouse serum albumin [18] = target: T1, mouse serum albumin; experiment: SPR, albumin immobilized, acetate pH 7.4
rhesus serum albumin [19] = target: T2, rhesus serum albumin; experiment: SPR, albumin immobilized, acetate pH 7.4
human serum albumin [20] = target: T4, human serum albumin; experiment: SPR, albumin immobilized, acetate pH 7.4
human PCSK9 [21] = target: T8, human PCSK9 (human, UniProt Q8NBP7 31-692); experiment: PCSK9:EGFA FRET 2, competition
T8 construct: also called hPCSK9; huPCSK9

human PCSK9 [22] = target: T8, human PCSK9; experiment: PCSK9:EGFA FRET human, summary table
human PCSK9 [23] = target: T8, human PCSK9; experiment: BLI (Octet), biotinylated PCSK9 on tips, tandem in complex with excess HSA
human PCSK9 [24] = target: T8, human PCSK9; experiment: PCSK9:EGFA FRET 1, competition
mouse serum albumin [25] = target: T1, mouse serum albumin; experiment: SPR, albumin immobilized, acetate pH 5.5; remark: listed apart in the source
rhesus serum albumin [26] = target: T2, rhesus serum albumin; experiment: SPR, albumin immobilized, acetate pH 5.5; remark: listed apart in the source
human serum albumin [27] = target: T4, human serum albumin; experiment: SPR, albumin immobilized, acetate pH 5.5; remark: listed apart in the source
mouse serum albumin [28] = target: T1, mouse serum albumin; experiment: Albumin KD (37° C.), summary table; mouse serum albumin (third value of the list)
rat serum albumin [29] = target: T3, rat serum albumin; experiment: Albumin KD (37° C.), summary table; rat serum albumin (fourth value of the list)
mouse serum albumin [30] = target: T1, mouse serum albumin; experiment: SPR, albumin immobilized; remark: listed apart in the source
rhesus serum albumin [31] = target: T2, rhesus serum albumin; experiment: SPR, albumin immobilized; remark: listed apart in the source
human serum albumin [32] = target: T4, human serum albumin; experiment: SPR, albumin immobilized; remark: listed apart in the source
cynomolgus serum albumin [33] = target: T5, cynomolgus serum albumin; experiment: Albumin KD (37° C.), summary table; cynomolgus serum albumin (second value in the cell)
human PCSK9 [34] = target: T8, human PCSK9; experiment: BLI (Octet), biotinylated PCSK9 on tips, no HSA
human PCSK9 [35] = target: T8, human PCSK9; experiment: PCSK9:LDLR FRET, competition
mouse serum albumin [36] = target: T1, mouse serum albumin; experiment: direct binding ELISA, albumin coated
rhesus serum albumin [37] = target: T2, rhesus serum albumin; experiment: direct binding ELISA, albumin coated
human serum albumin [38] = target: T4, human serum albumin; experiment: direct binding ELISA, albumin coated
human serum albumin [39] = target: T4, human serum albumin; experiment: Albumin KD (37° C.), summary table; human serum albumin (first value in the cell)
cynomolgus PCSK9 = target: T9, cynomolgus PCSK9 (cynomolgus, UniProt A0A7N9D9N8 150-747); experiment: Octet Red, 37° C., core
T9 construct: also called cyno PCSK9

human PCSK9 [40] = target: T8, human PCSK9; experiment: Octet Red, 37° C., core
mouse serum albumin [41] = target: T1, mouse serum albumin; experiment: SPR, albumin immobilized; remark: listed apart in the source
rhesus serum albumin [42] = target: T2, rhesus serum albumin; experiment: SPR, albumin immobilized; remark: listed apart in the source
rat serum albumin [43] = target: T3, rat serum albumin; experiment: SPR, albumin immobilized; remark: listed apart in the source
human serum albumin [44] = target: T4, human serum albumin; experiment: SPR, albumin immobilized; remark: listed apart in the source
cynomolgus serum albumin [45] = target: T5, cynomolgus serum albumin; experiment: SPR, albumin immobilized; remark: listed apart in the source

B1: PKE2 Adnectin 2630_D02 (designed binder)
chain: MGVSDVPRDLEVVAATPTSLLISWDAPAVTVRYYRITYGREVQKYSDWGPLYIYNEFTVPGSKSTATISGLKPGVDYTITVYAVTGSGESPASSKPISINYRTEIDKPSQHHHHHH
notes: 10Fn3 domain with modified CD loop; the entry includes the His6 tail
Mouse serum albumin [1]
  Kd: 13.6 nM
  koff: 0.0092 s⁻¹
  kon: 678000 M⁻¹ s⁻¹
Rhesus serum albumin [2]
  Kd: 1.8 nM
  koff: 0.000362 s⁻¹
  kon: 207000 M⁻¹ s⁻¹
Rat serum albumin [3]
  Kd: 200 nM
  koff: 0.0299 s⁻¹
  kon: 150000 M⁻¹ s⁻¹
Human serum albumin [4]
  Kd: 1 nM
  koff: 0.000162 s⁻¹
  kon: 167000 M⁻¹ s⁻¹
Cynomolgus serum albumin [5]
  Kd: 1.6 nM
  koff: 0.000335 s⁻¹
  kon: 208000 M⁻¹ s⁻¹
Human serum albumin [6]
  EC50: 9 nM
Human serum albumin [7]
  IC50: 28.7 nM
Domain III of HSA
  binding result: no binding
Domain I of HSA
  binding result: no binding

B2: PKE2 Adnectin 2270_C01 (designed binder)
chain: MASTSGVPRDLEVVAATPTSLLISWDAPAVTVRYYRITYGWQVQMYSDWGPLYIYKEFTVPGSKSTATISGLKPGVDYTITVYAVTGSGESPASSKPISINYRTEGDKPSQHHHHHH
notes: as for B1
Mouse serum albumin [8]
  Kd: ~192 nM
  koff: 0.0146 s⁻¹
  kon: 75900 M⁻¹ s⁻¹
Rhesus serum albumin [9]
  Kd: 17.6 nM
  koff: 0.00105 s⁻¹
  kon: 59600 M⁻¹ s⁻¹
Human serum albumin [10]
  Kd: 8.82 nM
  koff: 0.000898 s⁻¹
  kon: 102000 M⁻¹ s⁻¹
Human serum albumin [7]
  IC50: 37 nM
Mouse serum albumin [11]
  Kd: 67.7 nM
  koff: 0.00909 s⁻¹
  kon: 134000 M⁻¹ s⁻¹
Rhesus serum albumin [12]
  Kd: 6.98 nM
  koff: 0.000577 s⁻¹
  kon: 82700 M⁻¹ s⁻¹
Human serum albumin [13]
  Kd: 5.58 nM
  koff: 0.000368 s⁻¹
  kon: 65900 M⁻¹ s⁻¹
Mouse serum albumin [14]
  fold weaker affinity than for human or rhesus albumin: ~10 fold
Domain III of HSA
  binding result: no binding
Domain I of HSA
  binding result: no binding

B3: PCSK9-PKE2 tandem Adnectin w/ his tag 4472_C06 (designed binder)
chain: MGVSDVPRDLEVVAATPTSLLISWDAPAEGYGYYRITYGETGGNSPVQEFTVPVSKGTATISGLKPGVDYTITVYAVEFDFPGAGYYHRPISINYRTEPSTPPTPSPSTPPTPSPSGVSDVPRDLEVVAATPTSLLISWDAPAVTVRYYRITYGREVQKYSDLGPLYIYQEFTVPGSKSTATISGLKPGVDYTITVYAVTGSGESPASSKPISINYRTEHHHHHH
notes: also called ATI-1574; ADX_4472_C06
Mouse serum albumin [15]
  Kd: 28.2 nM
  koff: 0.000336 s⁻¹
  kon: 11900 M⁻¹ s⁻¹
Rhesus serum albumin [16]
  Kd: 78.9 nM
  koff: 0.000305 s⁻¹
  kon: 3860 M⁻¹ s⁻¹
Human serum albumin [17]
  Kd: 72 nM
  koff: 0.000258 s⁻¹
  kon: 3580 M⁻¹ s⁻¹
Mouse serum albumin [18]
  Kd: 34.8 nM
  koff: 0.000375 s⁻¹
  kon: 10800 M⁻¹ s⁻¹
Rhesus serum albumin [19]
  Kd: 80.7 nM
  koff: 0.000364 s⁻¹
  kon: 4510 M⁻¹ s⁻¹
Human serum albumin [20]
  Kd: 74.7 nM
  koff: 0.000325 s⁻¹
  kon: 4350 M⁻¹ s⁻¹
Human PCSK9 [21]
  IC50: 3.09 nM
Human PCSK9 [22]
  IC50: 1.5 nM
Human PCSK9 [23]
  Kd: 1.55 nM
  koff: 0.000305 s⁻¹
  kon: 197000 M⁻¹ s⁻¹
Human PCSK9 [24]
  IC50: 9.18 nM
Mouse serum albumin [25]
  Kd: 123 nM
  koff: 0.00161 s⁻¹
  kon: 13100 M⁻¹ s⁻¹
Rhesus serum albumin [26]
  Kd: 97.5 nM
  koff: 0.000815 s⁻¹
  kon: 8360 M⁻¹ s⁻¹
Human serum albumin [27]
  Kd: 38.2 nM
  koff: 0.000466 s⁻¹
  kon: 12200 M⁻¹ s⁻¹
Mouse serum albumin [28]
  Kd: 43 nM
Rat serum albumin [29]
  Kd: 200 nM
Mouse serum albumin [30]
  Kd: 26.1 nM
  koff: 0.000301 s⁻¹
  kon: 11500 M⁻¹ s⁻¹
Rhesus serum albumin [31]
  Kd: 77 nM
  koff: 0.000337 s⁻¹
  kon: 4380 M⁻¹ s⁻¹
Human serum albumin [32]
  Kd: 73.7 nM
  koff: 0.000289 s⁻¹
  kon: 3920 M⁻¹ s⁻¹
Cynomolgus serum albumin [33]
  Kd: 51 nM
Human PCSK9 [34]
  Kd: 0.515 nM
  koff: 0.000168 s⁻¹
  kon: 336000 M⁻¹ s⁻¹
Human PCSK9 [35]
  IC50: 1.4 nM
Mouse serum albumin [36]
  EC50: 15.6 nM
Rhesus serum albumin [37]
  EC50: 131 nM
Human serum albumin [38]
  EC50: 184 nM
Human serum albumin [39]
  Kd: 57 nM

B4: PCSK9 Adnectin 2382_D09 (designed binder)
chain: MGVSDVPRDLEVVAATPTSLLISWDAPAEGYGYYRITYGETGGNSPVQEFTVPVSKGTATISGLKPGVDYTITVYAVEFDFPGAGYYHRPISINYRT
Human PCSK9 [21]
  IC50: 10.6 nM
Human PCSK9 [24]
  IC50: 19.7 nM
Human PCSK9 [35]
  IC50: 2.3 nM
Cynomolgus PCSK9
  Kd: 39 nM
Human PCSK9 [40]
  Kd: 0.14 nM

B5: PCSK9-PKE2 tandem Adnectin w/o his tag 5190_E01 (designed binder)
chain: MGVSDVPRDLEVVAATPTSLLISWDAPAEGYGYYRITYGETGGNSPVQEFTVPVSKGTATISGLKPGVDYTITVYAVEFDFPGAGYYHRPISINYRTEPSTPPTPSPSTPPTPSPSGVSDVPRDLEVVAATPTSLLISWDAPAVTVRYYRITYGREVQKYSDLGPLYIYQEFTVPGSKSTATISGLKPGVDYTITVYAVTGSGESPASSKPISINYRTP
notes: also called ATI-1676; 4472_C06 tandem Adnectin without a 6X histidine tail
Mouse serum albumin [41]
  Kd: 43.3 nM
  koff: 0.000723 s⁻¹
  kon: 16700 M⁻¹ s⁻¹
Rhesus serum albumin [42]
  Kd: 53.8 nM
  koff: 0.000351 s⁻¹
  kon: 6520 M⁻¹ s⁻¹
Rat serum albumin [43]
  Kd: 200 nM
  koff: 0.00147 s⁻¹
  kon: 7350 M⁻¹ s⁻¹
Human serum albumin [44]
  Kd: 57.2 nM
  koff: 0.000272 s⁻¹
  kon: 4790 M⁻¹ s⁻¹
Cynomolgus serum albumin [45]
  Kd: 50.5 nM
  koff: 0.000326 s⁻¹
  kon: 6440 M⁻¹ s⁻¹
